# Results from US20260258149A1.
# Biological target: BSA-STn
# Assay: SPR, BSA-STn-serine immobilised on the chip as ligand, antibody injected as analyte
Kd,koff,kon,Binder
33.2 nM,0.00568 s⁻¹,171000 M⁻¹ s⁻¹,"humanized anti-STn antibody clone V3 (antibody, V domains shown) VH: QVQLQESGPGLVKPSQTLSLTCSVIGYSITSGYYWNWIRQPPGKGLEWIGSINYDGSNIYNPSLKDRVTISRDTSKNQFSLKLSSVTAADTAVYYCARGGDYWGQGTTVTVSS VL: EIVLTQSPATLSLSPGERATLSCSASSSVSYMHWFQQKPGQAPRRWIYDTSKRATGVPARFSGSGSGTDYTLTISSLEPEDFAAYYCQQWSSDPPMLTFGGGTKLEIK"
39.4 nM,0.00519 s⁻¹,132000 M⁻¹ s⁻¹,"humanized anti-STn antibody clone V2 (antibody, V domains shown) VH: QVQLQESGPGLVKPSQTLSLTCSVIGYSITSGYYWNWIRQPPGKGLEWIGSINYDGSNIYNPSLKDRVTISRDTSKNQFSLKLSSVTAADTAVYYCARGGDYWGQGTTVTVSS VL: DIVLTQSPAILSLSPGERATLSCSASSSVSYMHWFQQKSGQAPKRWIYDTSKLASGVPARFSGSGSGTDYTLTISSLEAEDFAAYYCQQWSSDPPMLTFGGGTKLEIK"
31.7 nM,0.00553 s⁻¹,174000 M⁻¹ s⁻¹,"humanized anti-STn antibody clone V1 (antibody, V domains shown) VH: QVQLQESGPGLVKPSQTLSLTCTVIGYSITSGYYWNWIRQPPGKGLEWIGSINYDGSNIYNPSLKSRVTISRDTSKNQFSLKLSSVTAADTAVYYCARGGDYWGQGTTVTVSS VL: EIVLTQSPATLSLSPGERATLSCSASSSVSYMHWFQQKPGQAPRRWIYDTSKRATGVPARFSGSGSGTDYTLTISSLEPEDFAAYYCQQWSSDPPMLTFGGGTKLEIK"
